The text below walks through data of paper PMC5502268, “DNA Methylation Influences Chlorogenic Acid Biosynthesis in Lonicera japonica by Mediating LjbZIP8 to Regulate Phenylalanine Ammonia-Lyase 2 Expression”.

For one series, the target named is T1, LjbZIP8 (Lonicera japonica, UniProt A0A4Y1JSE6 1-144).
T1 sequence: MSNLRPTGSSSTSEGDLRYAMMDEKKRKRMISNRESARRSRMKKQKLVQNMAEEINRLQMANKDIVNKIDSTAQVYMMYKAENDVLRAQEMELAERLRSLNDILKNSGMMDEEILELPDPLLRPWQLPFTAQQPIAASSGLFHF
The series can be described thus: EMSA; inhibited by unlabelled probe (200x in legend; 4 pmol vs 40 fmol in Methods); 40 fmol biotin probe, 15 fmol protein, 0 or 4 pmol competitor, room temperature 20 min, Pierce LightShift kit 20148; binding buffer, salt and pH not stated. The note with it: protein: recombinant; tags: GST (pGEX-4T-1); chain copies: 2; blunt. (Mobility shift assays separate free from complexed probe on a gel.)

The target in another series is T2, LjbZIP10 (Lonicera japonica, UniProt A0A4Y1JSG2 1-361).
T2 sequence: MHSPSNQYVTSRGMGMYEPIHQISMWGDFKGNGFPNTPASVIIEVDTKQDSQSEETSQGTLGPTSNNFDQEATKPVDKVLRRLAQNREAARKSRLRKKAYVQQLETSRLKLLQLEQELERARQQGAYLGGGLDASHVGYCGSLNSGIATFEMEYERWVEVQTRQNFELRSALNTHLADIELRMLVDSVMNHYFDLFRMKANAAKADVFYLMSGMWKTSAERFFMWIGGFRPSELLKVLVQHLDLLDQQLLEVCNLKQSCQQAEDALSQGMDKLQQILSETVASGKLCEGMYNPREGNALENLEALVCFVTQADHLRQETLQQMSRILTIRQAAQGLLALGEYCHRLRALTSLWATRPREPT
The series can be described thus: EMSA; 40 fmol biotin probe, 15 fmol protein, 0 or 4 pmol competitor, room temperature 20 min, Pierce LightShift kit 20148; binding buffer, salt and pH not stated. To be noted: protein: recombinant; tags: GST (pGEX-4T-1); chain copies: 2; blunt.

B1: LjPAL2 G-box probe (dsDNA)
DNA 1: CTCTCCTGTCCACGTGTCATCAAC
DNA 2: GTTGATGACACGTGGACAGGAGAG
B1: the binding result with LjbZIP8 is recorded as “binds”; in the series with LjbZIP10, “no binding”.
